# Tests used:
# human CCR8 (human) [1] = target: human CCR8 (human) (UniProt P51685); assay: flow cytometry on mammalian cells expressing human CCR8
# human CCR8 (human) [2] = target: human CCR8 (human) (UniProt P51685); assay: cell-based or functional assay
# human CCR8 (human), sequence (P51685 whole entry): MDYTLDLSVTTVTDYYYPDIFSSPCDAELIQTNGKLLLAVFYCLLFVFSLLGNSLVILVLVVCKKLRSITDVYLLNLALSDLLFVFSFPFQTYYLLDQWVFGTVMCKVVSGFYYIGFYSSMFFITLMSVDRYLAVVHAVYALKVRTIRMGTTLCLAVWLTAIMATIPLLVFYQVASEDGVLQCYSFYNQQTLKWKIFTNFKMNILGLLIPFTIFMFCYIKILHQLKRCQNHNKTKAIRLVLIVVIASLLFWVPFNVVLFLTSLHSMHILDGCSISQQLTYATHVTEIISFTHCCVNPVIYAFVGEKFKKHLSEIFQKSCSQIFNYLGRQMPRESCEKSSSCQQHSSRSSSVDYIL
Substance,MFI Fold over Background (fold over background) (human CCR8 (human) [1]),IC50 antagonism of EC80 Human CCL1 Gα15/16 Biosensor (human CCR8 (human) [2]),IC50 antagonism of EC80 Human CCL1 Gαz Biosensor (human CCR8 (human) [2])
ADI-26140: Human IgG1 isotype control (antibody),2,,
CTL-33364 = Biolegend human CCR8 control IgG clone L263G8 (antibody),268,1.62 nM,0.798 nM
MC148R = virokine from Molluscum contagiosum virus subtype 2 (MOCV) (ligand),,33.5 nM,13.8 nM
